Test [1] deals with T1, HLA-E (Homo sapiens, UniProt P13747).
T1 construct: expressed in transfected cells; host or cells: mouse lymphoma cell line RMA-S/HLA-E/LFA-3, a gift from Chiara Romagnani, DRFZ Berlin
Put plainly: HLA-E stabilization by UL40 peptides on HLA-E-expressing RMA-S cells. In kind it is cell-based. To be noted: for Interpretation: HLA-E binding class of UL40 variant; for Mean MFI: HLA-E expression on the cell surface of RMA-S cells incubated with UL40 peptide; for HLA-E Upregulation: HLA-E-expressing RMA-S cells incubated with UL40 peptide. The text has this: Functionally, the expansion of NKG2C^+ NK cells in response to HCMV infections depends on a highly polymorphic HCMV UL40-encoded peptide in the respective infecting HCMV variant, which upregulates the NKG2C ligand HLA-E on the surface of HCMV-infected cells^52. […] HCMV variants were obtained from all 145 HCMV-seropositive MS patients during an episode of HCMV reactivation between EBV seroconversion and MS diagnosis, as well as from all HCMV seropositive EBNA^high (N=80) and EBNA^low (N=85) controls in any of the serum samples collected from the individuals over time. […] Therefore, we incubated HLA-E-expressing RMA-S cells with each of the 18 UL40 peptides and measured HLA-E expression on the cell surface.

A further test has as its system EBV B95-8 isolate. Nature of the test: Virus (EBV) dissemination assay in K562-CR2-HLA-E cells. In kind it is cell-based, Epstein-Barr virus. Conditions: for viral spread (BZLF1+ K562-CR2-HLA-E cells); effect of peptide on NKG2A+ NK or NKG2A+ CD8+ T cell mediated prevention of the viral spread: 300 μM LMP-1 peptide, 2-14 days of co-culture. How it is done:
For the virus dissemination assays, the marmoset B-lymphoblastoid cell line B95-8 was cultured in RPM1 1640 medium supplemented with 20 mM glutamine, 50 µg/ml gentamicin, 0.2 µg/ml amphotericin B and 10% FCS (Thermo-Scientific). Cells were then cultured in the presence of […] (Biomol) for two weeks. EBV was harvested from the supernatant and enriched by ultracentrifugation (30000 U/min, 90 min, 10° C.). The virus stocks were stored at −80° C. in RPMI 1640 medium+10% FCS+10% DMSO (all: Thermo-Scientific). The multiplicity of infection (MOI) of the viral stocks was determined on K562-CR2-HLA-E*0101/0101 and K562-CR2-HLA-E*0103/0103 cells by flow-cytometry.
RMA-S/HLA-E/LFA-3 cells (kindly provided by Chiara Romagnani, DRFZ, Berlin) were maintained in RPMI-1640+20 mM glutamine+10% FCS+20 μM β-mercaptoethanol+100 U/ml penicillin-streptomycin (all Thermo Fisher)+400 μg/ml hygromycin B+1 mg/ml G418 (both InvivoGen). 2×10^6 RMA-S/LFA3/HLA-E cells were incubated for 16 h at 37° C., 5% CO2, with 300 μM of respective peptides (Peptides&Elephants) in 1 ml serum-free OptiMEM (Thermo-Fisher). Cells were afterwards inactivated using 20 μg/mL Mitomycin C (Sigma Aldrich) at 37° C. for 30 minutes. Peptide pulsed RMA-S/LFA3/HLA-E cells were co-cultured with […] CFSE (Thermo-Fisher) stained CD56^+ or CD8^+ MACS-enriched cells for 7 days in RPMI+10% FCS. Proliferating (CFSE^low) NKG2A^+CD56^+ NK cells, NKG2A^+ CD8^+ T cells or […]-specific, HLA-E-restricted NKG2A^+ or NKG2A^− T cells were then sorted by FACS as described below.
Fresh K562-CR2-HLA-E*0101/0101 and K562-CR2-HLA-E*0103/0103 cells were then inactivated using 20 μg/mL Mitomycin C at 37° C. for 30 minutes and then infected with the EBV B95-8 isolate (MOI=1) for 24 h. The infected cells were then co-cultured together with the sorted NKG2A^+ CD56^+ NK cells, NKG2A^+ CD8^+ T cells or […]-specific, HLA-E-restricted NKG2A^+ or NKG2A^− T cells (E:T, 1:2). In some experiments, 300 μM of respective peptides was also added. At indicated time points, the cells were harvested and analyzed by flow-cytometry, as described below.

Test [2] deals with HLA-E. Put plainly: HLA-E stabilization assay on peptide-pulsed K562-HLA-E cells. To be noted: K562-HLA-E*0103/0103 or K562-HLA-E*0101/0101 cells, 300 μM peptide, 16 h, flow-cytometry.
Experimental: HLA-E surface stabilization was induced as previously described^32. In brief, TAP-incompetent K562-HLA-E*0101/0101 and K562-HLA-E*0103/0103 (kindly provided by Thorbald van Hall, Leiden University Medical Center) were cultured in Iscove's Modified Dulbecco's Medium (IMDM)+10% FCS (both: Thermo-Scientific). […] (positive control), BZLF1-derived [sequence] or LMP-1 peptides (Peptides&Elephants) in 1 ml Opti-MEM (Thermo-Fisher) for 16 h at 37° C. Peptide-pulsed cells were either stained for HLA-E surface expression by flow-cytometry analysis or washed with complete medium and used for in vitro stimulations.
The following conjugated mouse anti-human mAB were used for flow-cytometry: BV421-CD56 (NCAM 16.2), BV421-CD8 (RPA-T8), BV510-NKG2A (131411), APC/H7-CD107a (H4A3), APC/CD21 (all: BD), APC-CD3 (UCHT1), APC/Cy7-IFNγ (B27), APC-HLA/E (all: Biolegend), APC-Cy7-Granzyme B (Abcore), BZLF1-Alexa488 (Novusbio). Dead cells were identified using LIVE/DEAD Fixable Green Dead Cell Stain Kit (Thermo-Scientific) or 7-Aminoactinomycin D (7-AAD, Invitrogen). Flow-cytometry analysis was performed on a FACSCanto2 platform and FACSDiva Version 10.7.2 (BD).
For a further test, the system named is NKG2C+ NK cells. Put plainly: NKG2C+ NK cell response elicited by UL40 peptides. Details: species or system human. To be noted: UL40 peptide variant encoded by infecting HCMV isolate.
The subject of test [3] is HLA-E. Nature of the test: LMP-1 dependent HLA-E up-regulation assay in GlialCAM370-389-specific B-cells. In kind it is cell-based, human. Conditions: B-cells from 24 healthy blood donors transfected with LMP-1 peptide, 16 h. How it is done: For the HLA-E stabilization experiments, 5×10^6 viable CFSE stained PBMCs were cultured in RPMI-1640+10% FCS in the presence of 10 μg GlialCAM370-389 ([…]), 10 μg of random 20 amino acid peptides (negative control, GenScript) or without peptides (non-peptide control) and 10 ng/mL IL-2 (Peprotech) at 37° C. Every three days, fresh 10 μg GlialCAM370-389 and 10 ng/mL IL-2 were added. After 7 days of co-culture, GlialCAM370-389-specific B-cells were sorted. 1×10^5 GlialCAM370-389-specific B-cells were then individually transfected with the indicated concentrations of the LMP-1 peptides (Peptides&Elephants) using the Pierce Protein Transfection Reagent according to the manufacturer's instructions (Thermo Fisher). After 16 h, the cells were either fixed and analyzed for HLA-E expression by flow cytometry, as described below, or washed once with Opti-MEM I Reduced Serum Medium (Gibco) and subsequently used in NKG2A^+ NK cell inhibition experiments. For the NKG2A^+ NK cell inhibition experiments, sorted NKG2A^+NKG2C^−NKG2D^− NK cells from 24 healthy blood donors were cultured together with peptide-pulsed GlialCAM370-389 B-cells (E:T, 1:1) for 6 h at 37° C. After co-cultivation, the supernatant was removed, cleared by centrifugation (1000×g, 5 min), and analyzed using IFNγ ELISA according to the manufacturer's recommendations (Thermo Fisher).

T1 sequence (P61769 21-119): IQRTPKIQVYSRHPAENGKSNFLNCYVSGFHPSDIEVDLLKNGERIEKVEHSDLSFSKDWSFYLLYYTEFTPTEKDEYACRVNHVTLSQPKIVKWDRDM
T1 sequence (P13747 22-358): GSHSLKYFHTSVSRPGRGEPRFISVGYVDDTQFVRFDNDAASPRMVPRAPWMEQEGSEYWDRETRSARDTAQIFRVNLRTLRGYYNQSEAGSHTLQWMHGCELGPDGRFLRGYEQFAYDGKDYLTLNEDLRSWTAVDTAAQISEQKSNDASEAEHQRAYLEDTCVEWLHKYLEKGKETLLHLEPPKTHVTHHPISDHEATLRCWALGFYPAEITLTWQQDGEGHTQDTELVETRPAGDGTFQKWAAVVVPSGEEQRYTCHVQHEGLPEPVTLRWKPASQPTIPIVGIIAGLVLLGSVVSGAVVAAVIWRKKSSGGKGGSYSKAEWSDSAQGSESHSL

Turning to VMAPRILIL [HCMV UL40 peptide variant], in the test with HLA-E [1], the Interpretation entry is listed as “Low Binding (↑)”, the “Mean MFI” value amounted to 2056 and the “HLA-E Upregulation” value came out at 54.2%.
The like results for VMGPRTLIL [HCMV UL40 peptide variant] were, in that order, “Low Binding (↑)”, 1858 and 48.9%.
For GSDPHLPTL, the “viral spread (BZLF1+ K562-CR2-HLA-E cells); effect of peptide on NKG2A+ NK or NKG2A+ CD8+ T cell mediated prevention of the viral spread” value (shortened to “viral spread”) with EBV B95-8 isolate is on record as “no inhibitory effect”. Moreover, the “HLA-E upregulation / stabilization (surface expression of HLA-E)” value in the test on HLA-E [2] is given as “neither significant HLA-E upregulation”.
On to VMAPWTLIL [HCMV UL40 peptide variant], for which, in the test with HLA-E [1], the Interpretation result is “Low Binding (↑)”, the “Mean MFI” value was found to be 1210 and the “HLA-E Upregulation” value turned out to be 31.9%.
On the same counts, the results for VIAPRTLIL [HCMV UL40 peptide variant] are “Low Binding (↑)”, 1541 and 40.6%.
On the same counts, the results for VMTPRTLIL [HCMV UL40 peptide variant] are “Low Binding (↑)”, 2633 and 69.3%.
Regarding VMAPRTLLL [HCMV UL40 peptide variant], in the test with HLA-E [1], the Interpretation entry is “High Binding (↑↑) (a high-level of HLA-E stabilization, as defined by an HLA-E upregulation of >99.5%)”; the “Mean MFI” value is 3776; the “HLA-E Upregulation” value is 99.5%. Moreover, in the test on NKG2C+ NK cells, the “NKG2C+ NK cell response” value is “more potent NKG2C^+ NK cell response”.
For VMTPRTLLL [HCMV UL40 peptide variant], in the test with HLA-E [1], the Interpretation result is listed as “Low Binding (↑)”, the “Mean MFI” value is on record as 2519 and the “HLA-E Upregulation” value was found to be 66.3%.
On the same counts, the results for VVAPRTLVL [HCMV UL40 peptide variant] are “Low Binding (↑)”, 1840 and 48.5%.
In the case of VMAPRTLVL [HCMV UL40 peptide variant], in the test with HLA-E [1], the Interpretation result is “High Binding (↑↑) (a high-level of HLA-E stabilization, as defined by an HLA-E upregulation of >99.5%)” and the “Mean MFI” value stood at 3782. Moreover, the “NKG2C+ NK cell response” value in the test with NKG2C+ NK cells was “more potent NKG2C^+ NK cell response”.
With VMAPRILVL [HCMV UL40 peptide variant], in the test with HLA-E [1], the Interpretation result was “Low Binding (↑)”, the “Mean MFI” value was 2299 and the “HLA-E Upregulation” value was found to be 60.5%.
For GMAPRTLLL [HCMV UL40 peptide variant], in the test with HLA-E [1], the Interpretation entry was “Low Binding (↑)”, the “Mean MFI” value is recorded as 1575 and the “HLA-E Upregulation” value is reported as 41.5%.
As to VMTPRTLVL [HCMV UL40 peptide variant], in the test with HLA-E [1], the Interpretation entry is listed as “Low Binding (↑)”, the “Mean MFI” value was 2488 and the “HLA-E Upregulation” value is on record as 65.5%.
In the case of “GTDPHLPTL [only rarely detected EBV LMP-1 peptide variant]”, the “viral spread” value in the test on EBV B95-8 isolate is “increased viral spread”. For the same sequence, the “inhibition of NKG2A+ CD8+ T cells in EBV-dissemination assay (granzyme B-expressing cells)” value with EBV B95-8 isolate (peptide-pulsed K562-CR2-HLA-E*0103/0103 and K562-CR2-HLA-E*0101/0101 cells, sorted NKG2A+ CD8+ T cells) is given as “caused the inhibition”. In addition, the “inhibition of NKG2A+ NK cells in EBV-dissemination assay (granzyme B-expressing cells)” value with EBV B95-8 isolate (peptide-pulsed K562-CR2-HLA-E*0103/0103 and K562-CR2-HLA-E*0101/0101 cells, sorted NKG2A+ NK cells) is recorded as “caused the inhibition”. The “upregulation of HLA-E on the surface of GlialCAM370-389-specific B-cells” value in the test with HLA-E [3] is reported as “stable upregulation of HLA-E”.
Turning to GGDPHLPPL, the “viral spread” value with EBV B95-8 isolate is on record as “no inhibitory effect”. Besides, the “HLA-E upregulation / stabilization (surface expression of HLA-E)” value with HLA-E [2] is “neither significant HLA-E upregulation”.
With VMAPRSLIL [HCMV UL40 peptide variant], in the test with HLA-E [1], the Interpretation entry is given as “Low Binding (↑)”, the “Mean MFI” value was found to be 2074 and the “HLA-E Upregulation” value is given as 54.6%.
The like results for VMAPWTLVL [HCMV UL40 peptide variant] were, in that order, “Low Binding (↑)”, 1503 and 39.6%.
In the case of VMAPRTLFL [HCMV UL40 peptide variant], in the test with HLA-E [1], the Interpretation result is given as “High Binding (↑↑) (a high-level of HLA-E stabilization, as defined by an HLA-E upregulation of >99.5%)”; the “Mean MFI” value was 3797; the “HLA-E Upregulation” value is recorded as 100.0%. In addition, the “NKG2C+ NK cell response” value in the test on NKG2C+ NK cells was “more potent NKG2C^+ NK cell response”.
As for VMAPRSLLL [HCMV UL40 peptide variant], in the test with HLA-E [1], the Interpretation result was “Low Binding (↑)”, the “Mean MFI” value was determined as 2351 and the “HLA-E Upregulation” value stood at 61.9%.
VLAPRTLLL [HCMV UL40 peptide variant]: in the test with HLA-E [1], the Interpretation entry is reported as “Low Binding (↑)”, the “Mean MFI” value is given as 2059 and the “HLA-E Upregulation” value is reported as 54.2%.

The record behind these values is patent publication US20260144862A1, “MATERIALS AND METHODS TO TREAT EPSTEIN-BARR VIRUS (EBV) AND EBV-INDUCED DISEASES” (Medizinische Universität Wien, priority 2022, published 2026).
